Source: paper PMC11633051, “Streptococcus pneumoniae GAPN is a key metabolic player necessary for host infection” (Protein Science : A Publication of the Protein Society, 2024)
Like-named read-outs stand apart in the source and are kept apart here.

Experiments:
S. pneumoniae GAPN [1] = target: T1, S. pneumoniae GAPN (Streptococcus pneumoniae, UniProt A0A0H2ZNN4); assay: UV kinetics at […] nm, varied G3P with fixed E4P ([…]); format: biochemical
T1 construct: N-terminal 6xHis tag, pET21b (NdeI), E. coli BL21(DE3); tag removal not mentioned; homotetramer; catalytic C283

O=C[C@H](O)COP(=O)(O)O = assay: purified protein; conditions: pH 7.5, 25°C, 1.0 mM NADP+, 40 nM GAPN
[2] = test system: NC(=O)c1ccc[n+]([C@@H]2O[C@H](COP(=O)(O)OP(=O)(O)OC[C@H]3O[C@@H](n4cnc5c(N)ncnc54)[C@H](OP(=O)(O)O)[C@@H]3O)[C@@H](O)[C@H]2O)c1; assay: purified protein; conditions: pH 7.5, 25°C, 1.0 mM G3P, 40 nM GAPN, varied: cofactor
[3] = test system: NC(=O)c1ccc[n+]([C@@H]2O[C@H](COP(=O)(O)OP(=O)(O)OC[C@H]3O[C@@H](n4cnc5c(N)ncnc54)[C@H](O)[C@@H]3O)[C@@H](O)[C@H]2O)c1; assay: purified protein; conditions: pH 8.5, 25°C, 1.0 mM G3P (Figure 2 legend says 500 μM), 20 μM GAPN, varied: cofactor
S. pneumoniae GAPN [4] = target: T1, S. pneumoniae GAPN; assay: isothermal titration calorimetry; format: binding
[5] = target: the molecule itself; assay: cryo-EM structure; purified GAPN at 90 uM in 50 mM HEPES pH 7.5, 50 mM NaCl, 2 mM DTT; alone (apo), with 1 mM NADP+ (holo) or with 1 mM G3P; single particle reconstruction

`O=C[C@H](O)[C@H](O)COP(=O)(O)O` [E4P] gave a Ki (S. pneumoniae GAPN [1]) of 25.7 ± 7.2 µM.

With “S. pneumoniae GAPN (Streptococcus pneumoniae D39)” the Km (O=C[C@H](O)COP(=O)(O)O) was 88 ± 17 µM, the Vmax (O=C[C@H](O)COP(=O)(O)O) was 580 ± 30 nM/s and the kcat (O=C[C@H](O)COP(=O)(O)O) was 14.5 ± 0.7 s⁻¹. It also gave a Km [2] of 119 ± 12 µM, a Vmax [2] of 570 ± 20 nM/s and a kcat [2] of 14.2 ± 0.6 s⁻¹. For the same molecule, the Km [3] was 7200 ± 2000 µM and the kcat [3] was 0.4 ± 0.1 s⁻¹.

`O=C[C@H](O)COP(=O)(O)O` [G3P] was tested, and the Kd (S. pneumoniae GAPN [4]; read-out: K D) was 0.053 ± 0.036 µM.

Work on `NC(=O)c1ccc[n+]([C@@H]2O[C@H](COP(=O)(O)OP(=O)(O)OC[C@H]3O[C@@H](n4cnc5c(N)ncnc54)[C@H](OP(=O)(O)O)[C@@H]3O)[C@@H](O)[C@H]2O)c1` [NADP^+] yielded a Kd (S. pneumoniae GAPN [4]) of 51 ± 32 µM.

B1: Streptococcus pneumoniae GAPN (non-phosphorylating glyceraldehyde-3-phosphate dehydrogenase) (enzyme, S. pneumoniae strain D39)
chain: MTRYQNLVNGKWKSSEQEITIYSPINQEELGTVPAMTQTEADEAMQAARAALPAWRALSAIERAAYLHKTAAILERDKEKIGTILAKEVAKGIKAAIGEVVRTADLIRYAAEEGLRITGQAMEGGGFEAASKNKLAVVRREPVGIVLAIAPFNYPVNLSASKIAPALIAGNVVMLKPPTQGSISGLLLAKAFEEAGIPAGVFNTITGRGSEIGDYIIEHKEVNFINFTGSTPIGERIGRLAGMRPIMLELGGKDAALVLEDADLEHAAKQIVAGAFSYSGQRCTAIKRVIVLESVADKLATLLQEEVSKLTVGDPFDNADITPVIDNASADFIWGLIEDAQEKEAQALTPIKREGNLLWPVLFDQVTKDMKVAWEEPFGPVLPIIRVASVEEAIAFANESEFGLQSSVFTNDFKKAFEIAEKLEVGTVHINNKTQRGPDNFPFLGVKGSGAGVQGIKYSIEAMTNVKSIVFDVK
notes: GAPN, non-phosphorylating glyceraldehyde-3-phosphate dehydrogenase of S. pneumoniae strain D39; gapn gene PCR amplified from genomic DNA; UniProt A0A0H2ZNN4_STRP2; The gene was inserted with an N-terminal 6xHis tag into NdeI-cleaved pET21b; Homotetramer in the cryo-EM structures
With B1 the “stoichiometry N” value [5] was 4.
